Results reported in patent publication US20100311605A1, “SENSING PLATFORM” (NATIONAL CHIAO TUNG UNIVERSITY, priority 2009, published 2010).

T1: MMP-2 (Homo sapiens, UniProt P08253)
T1 construct: purchased Sigma-Aldrich, USA
T1 sequence (P08253 110-660): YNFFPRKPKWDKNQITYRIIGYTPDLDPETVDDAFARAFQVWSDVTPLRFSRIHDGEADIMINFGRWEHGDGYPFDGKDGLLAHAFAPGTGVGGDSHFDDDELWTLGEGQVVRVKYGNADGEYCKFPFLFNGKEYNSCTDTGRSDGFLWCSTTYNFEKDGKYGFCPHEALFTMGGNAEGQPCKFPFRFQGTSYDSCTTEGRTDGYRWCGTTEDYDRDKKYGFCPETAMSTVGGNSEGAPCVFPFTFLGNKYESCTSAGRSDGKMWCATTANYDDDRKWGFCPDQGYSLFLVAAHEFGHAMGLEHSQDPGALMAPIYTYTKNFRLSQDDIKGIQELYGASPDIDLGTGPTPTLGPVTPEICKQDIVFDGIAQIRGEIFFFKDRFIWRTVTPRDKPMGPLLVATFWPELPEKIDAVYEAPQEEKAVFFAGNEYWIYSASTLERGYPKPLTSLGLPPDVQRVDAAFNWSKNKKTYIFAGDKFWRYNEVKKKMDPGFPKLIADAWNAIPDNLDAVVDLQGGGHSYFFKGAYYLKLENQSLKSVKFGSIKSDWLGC


What was measured:
trypsin = test: Specificity test of proteinase suppressors with AuNPs/MCH-gelatin sensing platform, trypsin; type: biochemical; conditions: suppressor solution 10 mM; 0.5 μL trypsin (100 ng/μL); 37° C., 30 minutes; FIG. 6
Method: (§1) Then, a solution of a highly concentrated proteinase suppressor ONO-4817 or A1AT (10 mM) was added to give a mixture. The mixture was placed in a water bath at 37° C. for 30 minutes to allow the reaction. A change in wavelength was measured by a spectrophotometer, and the ratios (A625/A525) of the values measured at wavelengths of 625 nm and 525 nm were calculated.

MMP-2 [1] = biological target: T1, MMP-2; test: Test of MMP-2 suppressor activity and specificity with AuNPs/MCH-gelatin sensing platform; type: biochemical; conditions: 37° C., 30 minutes; for suppression of MMP-2 activity (ratios A625/A525 versus control group): suppressor solution 10 mM, 0.5 μL MMP-2 (100 ng/μL), FIG. 6
Method: Buffer solutions containing different concentrations of ONO-4817 were added respectively into the solution of AuNPs/MCH-gelatin in a cuvette, and the concentrations of the solutions of AuNPs/MCH-gelatin were adjusted to give an OD525=1.
as §1

MMP-2 [2] = biological target: T1, MMP-2; conditions: read-out: enzyme inhibition constant (Ki); cited from earlier work
AuNPs/MCH-gelatin = test: Activity test of proteinase (trypsin) on AuNPs/MCH-gelatin; type: biochemical; conditions: 37° C., 10 minutes
Text: Different concentrations of trypsin were used for detection.
Ratios (A625/A525) of the measured values at wavelengths of 625 nm and 525 nm are used as a basis for detection, so as to correct the error of waveform overlapping caused by changes to the sizes of the AuNPs. The ratios (A625/A525) of the groups are in the following: 0.2127 for A, 0.2131 for B, 0.2134 for C, 0.2554 for D, 0.4236 for E, 0.5674 for F, 0.6114 for G and 0.6484 for H. The ratios and the trypsin concentrations are shown in FIG. 3I, wherein when the trypsin concentrations are from 1.25×10^−1 U to 1.25×10^2 U, the wavelength changes and the trypsin concentrations are positively associated.

| suppression of MMP-2 activity (ratios A625/A525 versus control group) (MMP-2 [1]) | suppression of MMP-2 activity (waveform change, A625/A525) (MMP-2 [1]; different concentrations of ONO-4817 (0.0125 to 512 nM), 0.5 μL MMP-2 (100 ng/μL) in 200 μL AuNPs/MCH-gelatin, FIG. 5) | ratio A625/A525 (AuNPs/MCH-gelatin; group B, 1.25×10^−3 U of trypsin) | ratio A625/A525 (AuNPs/MCH-gelatin; group C, 1.25×10^−2 U of trypsin) | ratio A625/A525 (AuNPs/MCH-gelatin; group D, 1.25×10^−1 U of trypsin) | ratio A625/A525 (AuNPs/MCH-gelatin; group E, 1.25×10^0 U of trypsin) | ratio A625/A525 (AuNPs/MCH-gelatin; group F, 1.25×10^1 U of trypsin) | ratio A625/A525 (AuNPs/MCH-gelatin; group G, 1.25×10^2 U of trypsin) | ratio A625/A525 (AuNPs/MCH-gelatin; group H, 1.25×10^3 U of trypsin) | Molecule | suppression of trypsin activity (ratios A625/A525 versus control group) (trypsin) | Ki (MMP-2 [2]) |
| --- | --- | --- | --- | --- | --- | --- | --- | --- | --- | --- | --- |
| not suppressed |  |  |  |  |  |  |  |  | A1AT: trypsin suppressor; cannot suppress the activity of MMPs | can effectively suppress the activity of trypsin |  |
| can suppress the activity of MMP-2 | can suppress the activity of MMP-2 |  |  |  |  |  |  |  | CCOCOC[C@H](C[C@H](C)C(=O)NO)NC(=O)c1ccc(Oc2ccccc2)cc1 [ONO-4817] | significantly increase | 0.72 nM |
|  |  | 0.2131 | 0.2134 | 0.2554 | 0.4236 | 0.5674 | 0.6114 | 0.6484 | trypsin: proteinase detected by the sensing platform (protein, UniProt P00760 24-246, looked up) Serine protease 1: IVGGYTCGANTVPYQVSLNSGYHFCGGSLINSQWVVSAAHCYKSGIQVRLGEDNINVVEGNEQFISASKSIVHPSYNSNTLNNDIMLIKLKSAASLNSRVASISLPTSCASAGTQCLISGWGNTKSSGTSYPDVLKCLKAPILSDSSCKSAYPGQITSNMFCAGYLEGGKDSCQGDSGGPVVCSGKLQGIVSWGSGCAQKNKPGVYTKVCNYVSWIKQTIASN |  |  |
